We go through 2 molecules from patent US20240294617A1 (Ablynx, published 2024).

In assay [1] the target is T1, human serum albumin (Sigma-Aldrich A3782) (human, UniProt P02768 25-609).
T1 construct: Bought protein; also called HSA; human SA
Kind of assay: SPR (ProteOn XPR36), SA immobilised, pH 7.4.

Assay [2] addresses T2, cynomolgus monkey serum albumin (generated in-house) (cynomolgus monkey, UniProt A2V9Z4 25-608, limits assumed).
T2 construct: also called cyno SA
The experiment in a line: SPR (ProteOn XPR36), SA immobilised, pH 7.4.

Assay [3] concerns the target T3, rat serum albumin (Sigma-Aldrich A4538) (rat, UniProt P02770 25-608).
T3 construct: Bought protein; also called rat SA
Kind of assay: SPR (ProteOn XPR36), SA immobilised, pH 7.4.

Assay [4] concerns the target T4, mouse serum albumin (Albumin Bioscience 2601) (mouse, UniProt P07724 25-608).
T4 construct: Bought protein; also called mouse SA
Kind of assay: SPR (ProteOn XPR36), SA immobilised, pH 7.4.

In assay [5] the target is T5, guinea pig serum albumin (Gentaur GPSA62) (guinea pig).
T5 construct: also called guinea pig SA
Kind of assay: SPR (ProteOn XPR36), SA immobilised, pH 7.4.

The target in assay [6] is T6, dog serum albumin (Abcam 119814) (dog, UniProt P49822 25-608).
T6 construct: Bought protein; also called dog SA
Kind of assay: SPR (ProteOn XPR36), SA immobilised, pH 7.4.

Assay [7] addresses T7, pig serum albumin (Sigma-Aldrich A4414) (pig, UniProt P08835 25-607).
T7 construct: Bought protein; also called pig SA
Kind of assay: SPR (ProteOn XPR36), SA immobilised, pH 7.4.

Assay [8] has as its target T1, human serum albumin (Sigma-Aldrich …). Kind of assay: SPR (ProteOn), HSA immobilised, 500 nM injected, dissociation at pH 5.0.
Assay [9] has the same target. The experiment in a line: SPR (ProteOn), HSA immobilised, 500 nM injected, dissociation at pH 6.0.
The target is the same in assay [10]. Kind of assay: SPR (ProteOn), HSA immobilised, 500 nM injected, dissociation at pH 7.4.
Assay [11] has the same target. Kind of assay: competition ELISA on coated HSA.

B1: serum albumin binder of SEQ ID NO:19 (invention) (VHH)
VHH: EVQLVESGGGVVQPGGSLRLSCAASGSTISSYVMGWFRRAPGKEREFVAAISRSGGYTYYADSVKGRFTISRDNSKKTAYLQMNSLRPEDTALYYCAAGRYSAWYSQSYEYDYWGQGTLVTVSS
notes: Monovalent Nanobody; also called T023500043
A word on the Kd: it is the free concentration of one partner at which half of the binding sites on the other are occupied at equilibrium, for simple one-to-one binding. A word on the koff: it is the first-order rate constant of dissociation. A word on the kon: it is the rate constant with which the complex forms. Turning to B1, the Kd turned out to be 0.046 nM in assay [1]; 0.016 nM in assay [2]; 0.012 nM in assay [3]; 0.016 nM in [4]; 0.059 nM in assay [5]; 2.8 nM in assay [6]. The Kd in assay [7] amounted to 290 nM. The koff was found to be 3.7e-05 s⁻¹ in assay [1]; 1.4e-05 s⁻¹ in assay [2]; 1.5e-05 s⁻¹ in assay [3]; 1.5e-05 s⁻¹ in assay [4]; 5.6e-05 s⁻¹ in [5]; 0.0025 s⁻¹ in assay [6]. Besides, the dissociation rate constant (koff) in assay [7] worked out at 0.036 s⁻¹; in [8], 7.5e-05 s⁻¹; in assay [9] it was 6.7e-05 s⁻¹; in [10], 6e-05 s⁻¹. The association rate constant (kon) in assay [1] worked out at 790000 M⁻¹ s⁻¹; in assay [2], 830000 M⁻¹ s⁻¹; in [3], 1.2e+06 M⁻¹ s⁻¹; in [4], 940000 M⁻¹ s⁻¹; in assay [5], 940000 M⁻¹ s⁻¹; in [6], 900000 M⁻¹ s⁻¹. The kon in assay [7] amounted to 120000 M⁻¹ s⁻¹.

B2: His6Flag3-SEQ ID NO:20 (VHH, not shown: small tags and cut ends)
VHH: EVQLVESGGGVVQPGGSLRLSCAASGSNISSYVMGWFRRAPGKEREFVAAISRSGGYTYYADSVKGRFTISRDNSKKTAYLQMNSLRPEDTALYYCAAGRYSAWYSQSYEYDYWGQGTLVTVSS
Regarding B2, in assay [11], the binding result is listed as “binds”.
